B1: INTS4 (parent)
chain: YSSGEFSSGRKWGDDAPKEEVDTG
B2: CAMK2A (parent)
chain: CIQQILEAVLHCHQMGVVHRDLKP

Variants of: B1
Test: protein stability index of a GFP-peptide fusion (GPS, HEK-293T) (PSI 1-6); higher = more stable
Conditions: c terminus: a fixed tail appended
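Further: lentivirally expressed fusions sorted by FACS into six bins by GFP to DsRed ratio, PSI derived from sequencing read proportions per bin multiplied by bin number.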

Protein stability index: each site, then its substitutions
Y1: H 5.51; Q 5.66; S 5.81; K 5.62; M 5.39; C 3.87; P 5.42; R 5.71; G 5.47; L 5.79; E 5.74; A 4.93; V 5.8; I 5.55; T 5.12; W 4.52; D 5.8; N 5.22
S2: K 5.2; A 2.28; L 3.48; W 3.81; Y 4.92; P 2.31; R 5.05; C 2.04; N 4.64; M 3.97; E 5.4; H 1.48; F 4.02; D 5.77; V 1.59; G 1.95; T 2.67; Q 2.48; I 2.42
S3: I 4.01; A 4.89; Y 4.13; D 5.15; T 3.83; K 4.51; H 4.43; F 3.93; P 4.1; R 4.47; W 2.89; E 5.22; G 3.5; C 4.1; Q 3.86; L 4.59; V 4.77; N 4.08; M 3.91
G4: E 4.08; M 3.75; A 3.56; F 3.6; V 3.87; P 3.11; D 4.57; Y 3.91; C 3.61; K 3.31; S 4.02; R 2.22; I 4.11; W 2.43; Q 3.92; N 4.01; T 3.61; L 3.33; H 4.42
E5: D 3.64; A 2.75; C 1.84; F 1.76

Variants of: B2
Test: as above
Conditions: c terminus: a fixed tail appended

Protein stability index, by site and new letter:
K23: R 3.33; P 2.63; C 3.94; W 3.83; Y 3.71; V 1.76; N 3.36; H 3.03; E 2.61; I 2.2; L 2.73; S 1.65; D 3.12
A8: Q 2.42; D 2.04; Y 2.54; G 3.6; F 3.18; R 1.5; C 2.57; W 4.4; H 2.39; K 2.86; V 2.26; P 2.9; M 3.63; T 3.67
H19: W 3.38; M 2.59; T 3.67; K 2.34; R 2.92; Y 2.79; I 2.01; C 1.84; S 2.53; E 3.29; F 3.5; L 1.9; D 2.72; G 3.33
C12: Y 3.8; A 2.34; I 2.66; K 1.82; H 2.98; E 2.58; T 2.74; V 2.82; N 3.26; P 1.53; R 4.86; W 2.65; G 1.18; D 1.54; M 2.79; L 3.33
H13: Y 3.92; N 2.28; R 1.55; G 3.66; F 1.28; M 2.07; E 2.49; K 1.73; D 2.57; C 2.35; Q 1.22; W 1.27; I 2.85
G16: W 1.79; V 1.3; H 2.16; D 2.41; E 3.1; Y 1.91; Q 3.06; K 1.11; C 2.97; R 1.6; I 2.24; M 3.07; N 3.04; P 2.69
M15: Q 1.22; H 2.24; V 2.57; D 1.8; E 2.68; S 2.6; Y 2.85; P 1.81; F 1.84; N 1.52; I 2.31; C 2.85; G 2.05; K 2.42; W 3.1
V17: T 3.89; G 3.75; F 1.59; C 2.21; R 3.99; A 1.8; L 2.42; P 2.65; D 2.57; H 1.99; M 2.44; Y 3.53; I 1.95; N 3.21; E 2.01; Q 2.79
V18: H 3.82; T 2.33; Y 2.35; D 2.78; K 2.97; P 2.35; F 1.78; G 2.31; C 2.28; N 2.84; R 1.68; I 2; E 1.63; S 1.92; A 2.83; Q 3.46
L10: M 3.74; S 2.21; V 3.33; D 1.95; N 2.05; E 1.53; W 4.24; T 2.11; A 1.35; Q 2.19; G 1.67; R 2.37; P 1.66; H 2.19; K 1.9; F 2.72
P24: K 2.31; I 3.7; S 2.12; Q 1.86; D 2.99; F 2.58; M 3.07; R 2.44; C 1.95; W 1.82; L 1.78; G 2.88; Y 3
H11: C 2.39; P 1.69; S 2.86; E 2.91; M 4.07; V 1.53; N 2.4; Q 1.9; F 3.5; D 3.55; T 2.39; K 1.72; I 3.32
R20: I 1.85; T 3.37; N 1.52; G 2.37; Y 2.17; W 3.1; K 2.66; C 2.37; P 1.77; L 2.54; F 1.97; D 2.72; E 3.3
Q14: S 2.83; R 1.94; W 2.76; I 2.86; C 2.78; E 3.49; H 2.38; Y 3.42; K 3.21; N 1.28; T 3.88; L 3.6; A 2.29; P 2; D 3.09; F 2.94
E7: T 1.99; V 1.8; Y 4.43; W 2.78
D21: Q 2.22; S 1.66; C 2.86; P 2.07; R 2.75; L 3.01; I 3.1; K 4.29; N 4.66; M 2.17; G 2.28; H 2.62; F 2.97; T 2.36; A 4.17; W 3.37
L22: E 2.96; Q 1.62; R 1.03; S 2.34; I 3.05; C 3.02; K 2.53; P 1.82; A 2.87; H 1.99; Y 1.95; T 3.01; F 2.66; G 2.03; N 2.03; W 2.28
V9: W 2.45; Q 1.96; R 2.01; G 2; T 2.86; Y 3.08; A 1.86; C 2.82; D 1.83; K 1.72; E 1.87; L 3.23; M 2.92; N 1.96; H 2.35; I 2.04; P 1.26

From the supplement of paper PMC10567573
